Experimental data taken from publication PMC5587847, “IPA1 functions as a downstream transcription factor repressed by D53 in strigolactone signaling in rice” (Cell Research, 2017).

Target: T1, HisTrx-D53 (rice (Oryza sativa L.), UniProt Q2RBP2 1-1131)
T1 construct: DWARF 53 (D53), rice; full-length CDS in an E. coli expression vector (pDEST51); also called HisTrx-D53 fusion protein; source: E. coli, purified
T1 sequence (looked up): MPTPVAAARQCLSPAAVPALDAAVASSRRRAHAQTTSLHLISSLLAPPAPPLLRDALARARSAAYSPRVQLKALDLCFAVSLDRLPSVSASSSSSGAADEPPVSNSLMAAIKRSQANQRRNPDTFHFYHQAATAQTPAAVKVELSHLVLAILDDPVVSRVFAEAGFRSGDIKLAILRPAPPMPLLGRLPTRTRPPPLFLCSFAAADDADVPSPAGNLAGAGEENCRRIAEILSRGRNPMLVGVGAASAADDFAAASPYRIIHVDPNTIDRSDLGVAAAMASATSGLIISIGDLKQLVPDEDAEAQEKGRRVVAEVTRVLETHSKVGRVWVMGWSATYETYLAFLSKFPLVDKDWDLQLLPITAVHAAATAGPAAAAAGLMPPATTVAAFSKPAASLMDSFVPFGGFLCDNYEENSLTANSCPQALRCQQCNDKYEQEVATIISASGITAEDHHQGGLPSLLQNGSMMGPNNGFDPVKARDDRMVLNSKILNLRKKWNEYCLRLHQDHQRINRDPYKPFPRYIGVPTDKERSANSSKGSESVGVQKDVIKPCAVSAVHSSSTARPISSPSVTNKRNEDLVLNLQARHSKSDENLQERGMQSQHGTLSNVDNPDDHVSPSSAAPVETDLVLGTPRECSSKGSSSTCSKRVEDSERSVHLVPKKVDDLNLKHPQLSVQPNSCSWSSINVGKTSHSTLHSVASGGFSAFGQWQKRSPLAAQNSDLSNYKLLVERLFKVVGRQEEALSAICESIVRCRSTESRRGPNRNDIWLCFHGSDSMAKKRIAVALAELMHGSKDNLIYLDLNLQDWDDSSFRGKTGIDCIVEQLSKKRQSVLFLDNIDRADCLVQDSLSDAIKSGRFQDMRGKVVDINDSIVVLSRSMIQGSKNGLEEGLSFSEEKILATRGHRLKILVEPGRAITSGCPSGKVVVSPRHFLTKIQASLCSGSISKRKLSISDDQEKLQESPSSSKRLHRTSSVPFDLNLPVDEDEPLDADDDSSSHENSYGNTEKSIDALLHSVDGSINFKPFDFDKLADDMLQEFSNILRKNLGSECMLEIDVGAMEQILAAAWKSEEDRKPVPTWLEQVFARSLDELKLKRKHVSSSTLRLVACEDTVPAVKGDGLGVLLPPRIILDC
Test: pull-down; GST pull-down with HisTrx-D53 and GST-IPA1, both purified from bacteria; D53 detected by anti-D53
Conditions: both partners purified

binding result: binds
B1: GST-IPA1 (natural protein, rice (Oryza sativa L.), UniProt Q7EXZ2 1-417, looked up)
chain: MEMASGGGAAAAAGGGVGGSGGGGGGGDEHRQLHGLKFGKKIYFEDAAAAAGGGGTGSGSGSASAAPPSSSSKAAGGGRGGGGKNKGKGVAAAAPPPPPPPPRCQVEGCGADLSGIKNYYCRHKVCFMHSKAPRVVVAGLEQRFCQQCSRFHLLPEFDQGKRSCRRRLAGHNERRRRPQTPLASRYGRLAASVGEHRRFRSFTLDFSYPRVPSSVRNAWPAIQPGDRISGGIQWHRNVAPHGHSSAVAGYGANTYSGQGSSSSGPPVFAGPNLPPGGCLAGVGAATDSSCALSLLSTQPWDTTTHSAAASHNQAAAMSTTTSFDGNPVAPSAMAGSYMAPSPWTGSRGHEGGGRSVAHQLPHEVSLDEVHPGPSHHAHFSGELELALQGNGPAPAPRIDPGSGSTFDQTSNTMDWSL
notes: Ideal Plant Architecture 1 (IPA1, SPL14), rice; full-length CDS in pGEX-6p-1; source: E. coli (pGEX-6p-1), purified
